Experimental data taken from the supplement of paper PMC9112550, “Optimization of the antimicrobial peptide Bac7 by deep mutational scanning” (BMC Biology, 2022).

Tested on: Escherichia coli TOP10
Assay: shrunken log2 fold change of peptide-encoding DNA abundance (4.5 h post-induction vs induction); higher = less antimicrobial activity (less host growth inhibition)
Details: time post-induction: 4.5 h; library: site-saturation at positions 5, 18, 19, 20
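Note: peptides expressed intracellularly from a pBAD plasmid library in pooled LB shake-flask culture, induced with 0.3% L-arabinose, DNA abundance read by NGS, three biological replicates, DESeq2 with apeglm shrinkage.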

| Sequence | shrunken log2 fold change |
| --- | --- |
| RRIRIRPPRLPRPRPRPTACPRP | 0.0015 |
| RRIRKRPPRLPRPRPRPAKLPRP | 0.446 |
| RRIRTRPPRLPRPRPRPHGVPRP | -0.00162 |
| RRIRVRPPRLPRPRPRPFKFPRP | -0.0599 |
| RRIRKRPPRLPRPRPRPMMEPRP | -0.00277 |
| RRIRERPPRLPRPRPRPIREPRP | 0.0256 |
| RRIRMRPPRLPRPRPRPSSRPRP | 0.208 |
| RRIRWRPPRLPRPRPRPHNTPRP | -0.391 |
| RRIRKRPPRLPRPRPRPPAGPRP | 0.989 |
| RRIRVRPPRLPRPRPRPLHWPRP | 0.243 |
| RRIRNRPPRLPRPRPRPFQQPRP | -0.00931 |
| RRIRQRPPRLPRPRPRPSLTPRP | 0.133 |
| RRIRYRPPRLPRPRPRPWIAPRP | -0.791 |
| RRIRGRPPRLPRPRPRPTTFPRP | 0.608 |
| RRIRTRPPRLPRPRPRPVRGPRP | 0.784 |
| RRIRYRPPRLPRPRPRPRVDPRP | -0.531 |
| RRIRMRPPRLPRPRPRPNVDPRP | 0.0854 |
| RRIRTRPPRLPRPRPRPYFIPRP | -0.872 |
| RRIRERPPRLPRPRPRPMYKPRP | -0.0299 |
| RRIRMRPPRLPRPRPRPNQTPRP | -0.0789 |
| RRIRDRPPRLPRPRPRPDWKPRP | 0.0755 |
| RRIRRRPPRLPRPRPRPPDQPRP | 0.764 |
| RRIRARPPRLPRPRPRPSKTPRP | 0.314 |
| RRIRLRPPRLPRPRPRPIKLPRP | -0.515 |
| RRIRTRPPRLPRPRPRPECEPRP | 0.154 |

| Sequence | shrunken log2 fold change |
| --- | --- |
| RRIRNRPPRLPRPRPRPTNCPRP | 0.143 |
| RRIRLRPPRLPRPRPRPQRKPRP | 0.198 |
| RRIRERPPRLPRPRPRPYPSPRP | -0.967 |
| RRIRKRPPRLPRPRPRPRPEPRP | 0.162 |
| RRIRRRPPRLPRPRPRPKFSPRP | 0.0704 |
| RRIRKRPPRLPRPRPRPVQVPRP | -0.0596 |
| RRIRLRPPRLPRPRPRPEYYPRP | -0.0599 |
| RRIRLRPPRLPRPRPRPVREPRP | 0.185 |
| RRIRMRPPRLPRPRPRPFLRPRP | -0.22 |
| RRIRNRPPRLPRPRPRPYFLPRP | -0.897 |
| RRIRCRPPRLPRPRPRPIPPPRP | 0.265 |
| RRIRARPPRLPRPRPRPHAEPRP | 0.955 |
| RRIRPRPPRLPRPRPRPLAFPRP | -0.0389 |
| RRIRPRPPRLPRPRPRPAIVPRP | 0.119 |
| RRIRKRPPRLPRPRPRPQKKPRP | -0.111 |
| RRIRNRPPRLPRPRPRPNLVPRP | -0.0403 |
| RRIRARPPRLPRPRPRPMGDPRP | -0.0121 |
| RRIRHRPPRLPRPRPRPEHPPRP | 0.00839 |
| RRIRMRPPRLPRPRPRPSNTPRP | -0.0896 |
| RRIRPRPPRLPRPRPRPFDTPRP | -0.126 |
| RRIRVRPPRLPRPRPRPIVNPRP | -0.11 |
| RRIRKRPPRLPRPRPRPTHLPRP | 0.149 |
| RRIRRRPPRLPRPRPRPTMQPRP | 0.275 |
| RRIRQRPPRLPRPRPRPLWHPRP | -0.107 |
| RRIRNRPPRLPRPRPRPHSNPRP | -0.341 |

| Sequence | shrunken log2 fold change |
| --- | --- |
| RRIRTRPPRLPRPRPRPWTWPRP | -0.0696 |
| RRIRFRPPRLPRPRPRPQGWPRP | 0.466 |
| RRIRGRPPRLPRPRPRPFELPRP | 0.0951 |
| RRIRHRPPRLPRPRPRPHRHPRP | -0.2 |
| RRIRTRPPRLPRPRPRPHTDPRP | -0.401 |
| RRIRRRPPRLPRPRPRPDAQPRP | 0.471 |
| RRIRDRPPRLPRPRPRPTWTPRP | -0.043 |
| RRIRIRPPRLPRPRPRPHWHPRP | -0.153 |
| RRIRCRPPRLPRPRPRPTGCPRP | -0.0358 |
| RRIRLRPPRLPRPRPRPYAMPRP | -0.226 |
| RRIRPRPPRLPRPRPRPHTMPRP | -0.143 |
| RRIRERPPRLPRPRPRPPMHPRP | -0.171 |
| RRIRVRPPRLPRPRPRPNDYPRP | -0.00419 |
| RRIRMRPPRLPRPRPRPIIYPRP | -0.732 |
| RRIRLRPPRLPRPRPRPSESPRP | -0.244 |
| RRIRRRPPRLPRPRPRPFKVPRP | -0.0272 |
| RRIRHRPPRLPRPRPRPTKAPRP | -0.0108 |
| RRIRDRPPRLPRPRPRPCQTPRP | 0.00442 |
| RRIRSRPPRLPRPRPRPNAMPRP | -0.0346 |
| RRIRARPPRLPRPRPRPRKKPRP | 0.404 |
| RRIRFRPPRLPRPRPRPPAEPRP | 0.606 |
| RRIRKRPPRLPRPRPRPYYDPRP | -0.204 |
| RRIRPRPPRLPRPRPRPTAEPRP | 0.595 |
| RRIRGRPPRLPRPRPRPTPYPRP | 0.324 |
| RRIRGRPPRLPRPRPRPTMFPRP | 0.521 |

| Sequence | shrunken log2 fold change |
| --- | --- |
| RRIRMRPPRLPRPRPRPSRPPRP | 0.764 |
| RRIRRRPPRLPRPRPRPNNRPRP | -0.0987 |
| RRIRERPPRLPRPRPRPMLCPRP | 0.05 |
| RRIRDRPPRLPRPRPRPIEDPRP | -0.0411 |
| RRIRCRPPRLPRPRPRPQLYPRP | -0.236 |
| RRIRERPPRLPRPRPRPKCGPRP | 0.0971 |
| RRIRERPPRLPRPRPRPGMYPRP | -0.0383 |
| RRIRFRPPRLPRPRPRPPKGPRP | -0.0971 |
| RRIRHRPPRLPRPRPRPSYCPRP | 0.00287 |
| RRIRARPPRLPRPRPRPNWRPRP | 0.883 |
| RRIRYRPPRLPRPRPRPQHTPRP | -0.671 |
| RRIRARPPRLPRPRPRPVPSPRP | 0.181 |
| RRIRWRPPRLPRPRPRPICPPRP | -0.0872 |
| RRIRNRPPRLPRPRPRPHHYPRP | -0.619 |
| RRIRCRPPRLPRPRPRPGIPPRP | -0.126 |
| RRIRIRPPRLPRPRPRPGQEPRP | -0.00674 |
| RRIRMRPPRLPRPRPRPFWPPRP | 1.3 |
| RRIRCRPPRLPRPRPRPWGAPRP | 0.0457 |
| RRIRCRPPRLPRPRPRPYKRPRP | -0.909 |
| RRIRPRPPRLPRPRPRPSLSPRP | 0.022 |
| RRIRDRPPRLPRPRPRPYCAPRP | -0.204 |
| RRIRHRPPRLPRPRPRPNLDPRP | -1.17 |
| RRIRRRPPRLPRPRPRPMTFPRP | 0.164 |
| RRIRPRPPRLPRPRPRPCMIPRP | -0.692 |
| RRIRMRPPRLPRPRPRPRFCPRP | 1.63 |

| Sequence | shrunken log2 fold change |
| --- | --- |
| RRIRMRPPRLPRPRPRPIKAPRP | 0.0335 |
| RRIRERPPRLPRPRPRPAMDPRP | 0.283 |
| RRIRNRPPRLPRPRPRPRIKPRP | 0.0822 |
| RRIRHRPPRLPRPRPRPYWHPRP | -0.666 |
| RRIRDRPPRLPRPRPRPFHVPRP | -0.0179 |
| RRIRIRPPRLPRPRPRPKCIPRP | -0.399 |
| RRIRSRPPRLPRPRPRPVNAPRP | 0.319 |
| RRIRQRPPRLPRPRPRPWWYPRP | -0.0791 |
| RRIRRRPPRLPRPRPRPTNAPRP | 0.158 |
| RRIRDRPPRLPRPRPRPNVHPRP | -0.303 |
| RRIRARPPRLPRPRPRPEHQPRP | 0.399 |
| RRIRIRPPRLPRPRPRPFKDPRP | -0.0121 |
| RRIRYRPPRLPRPRPRPMSTPRP | -0.0213 |
| RRIRPRPPRLPRPRPRPDKFPRP | -0.233 |
| RRIRSRPPRLPRPRPRPRCNPRP | 0.124 |
| RRIRDRPPRLPRPRPRPVSIPRP | -0.105 |
| RRIRGRPPRLPRPRPRPQQIPRP | 0.457 |
| RRIRTRPPRLPRPRPRPFSMPRP | -0.0868 |
| RRIRPRPPRLPRPRPRPSVQPRP | -0.0553 |
| RRIRTRPPRLPRPRPRPYSIPRP | 0.015 |
| RRIRIRPPRLPRPRPRPERTPRP | 0.0643 |
| RRIRQRPPRLPRPRPRPEVFPRP | 0.0304 |
| RRIRYRPPRLPRPRPRPYLIPRP | -0.554 |
| RRIRSRPPRLPRPRPRPCMPPRP | -0.375 |
| RRIRWRPPRLPRPRPRPLGRPRP | 0.424 |
